Experimental data published in US20180355043A1.

Key:
Test in all cases: MSD ECL; antigen coated; protocol of Example 3
[1] = biological target: DR4G97: Human HLA-DRA1*01:02/DRB1*15:01 ECD with collagen II peptide CII_1236-1249 (human)
[2] = biological target: DR4G115 (HLA DPB4:01, peptide LCAP) (human)
[3] = biological target: DR4G143: Human HLA-DRA1*01:02/DRB1*04:01 ECD_VimentineL70A (human)
[4] = biological target: DR4G146 (HLA DQB2:01, peptide CLIP) (human)
[5] = biological target: DR4G101: Human HLA-DRA1*01:02/DRB1*04:02 ECD with collagen II peptide CII_257-273 (human)
[6] = biological target: DR4G145 (HLA DQB2:01, peptide CLIP) (human)
[7] = biological target: DR4G96: Human HLA-DRA1*01:02/DRB1*01:01 ECD with CLIP peptide (human)
[8] = biological target: DR4G117: Human HLA-DRA1*01:02/DRB1*03:01 ECD with Collagen II peptide CII_1236-1249 (human)
[9] = biological target: DR4G102: Human HLA-DRA1*01:02/DRB1*01:01 ECD with collagen II peptide CII_257-273 (human)
[10] = biological target: DR4G112: Human HLA-DQA1*01:02/DQB1*06:02 ECD with PLP peptide PLP_178-186 (human)
[11] = biological target: DR4G110: Human HLA-DRA1*01:02/DRB1*04:01 ECD with aggrecan peptide N1 (human)
[12] = biological target: DR4G107 (HLA DPB4:01, peptide CLIP) (human)
[13] = biological target: DR4G86: Human HLA-DRA1*01:02/DRB1*04:01 ECD with CLIP peptide (human)
[14] = biological target: DR4G98: Human HLA-DRA1*01:02/DRB1*04:02 ECD with collagen II peptide CII_1236-1249 (human)
[15] = biological target: DR4G142: Human HLA-DRA1*01:02/DRB1*03:01 ECD_VimentineL70A (human)
[16] = biological target: DR4G92: Human HLA-DRA1*01:02/DRB1*04:01 ECD with collagen II peptide CII_257-273 (human)
[17] = biological target: DR4G99: Human HLA-DRA1*01:02/DRB1*01:01 ECD with collagen peptide CII_1236-1249 (human)

Chain of DR4G115 (HLA DPB4:01, peptide LCAP) (human) (P20036 29-222, chain 1 of 2): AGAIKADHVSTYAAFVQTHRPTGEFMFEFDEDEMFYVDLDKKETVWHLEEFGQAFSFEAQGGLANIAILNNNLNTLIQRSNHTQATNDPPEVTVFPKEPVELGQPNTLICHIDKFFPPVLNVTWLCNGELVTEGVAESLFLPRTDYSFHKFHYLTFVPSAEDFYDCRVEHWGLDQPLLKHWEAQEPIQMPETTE
Chain of DR4G115 (HLA DPB4:01, peptide LCAP) (human) (P04440 30-225, chain 2 of 2, further chain): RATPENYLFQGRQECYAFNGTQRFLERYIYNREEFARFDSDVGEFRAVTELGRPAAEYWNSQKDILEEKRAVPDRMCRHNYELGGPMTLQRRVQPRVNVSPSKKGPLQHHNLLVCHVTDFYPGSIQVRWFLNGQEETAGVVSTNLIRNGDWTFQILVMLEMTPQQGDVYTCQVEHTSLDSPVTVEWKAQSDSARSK

Substance: Isotype control (antibody)
- ECL signal [1]: 393 ECL
- ECL signal [2]: 91 ECL
- ECL signal [3]: 410 ECL
- ECL signal [4]: 1470 ECL
- ECL signal [5]: 1250 ECL
- ECL signal [6]: 2780 ECL
- ECL signal [7]: 781 ECL
- ECL signal [8]: 603 ECL
- ECL signal [9]: 392 ECL
- ECL signal [10]: 250 ECL
- ECL signal [11]: 1030 ECL
- ECL signal [12]: 153 ECL
- ECL signal [13]: 335 ECL
- ECL signal [14]: 613 ECL
- ECL signal [15]: 2220 ECL
- ECL signal [16]: 486 ECL
- ECL signal [17]: 490 ECL
